Biological target: T1, VelB-GFP (full length A. nidulans Velvet-like B fused to GFP) (Aspergillus nidulans, UniProt C8VTS4 1-369)
T1 sequence: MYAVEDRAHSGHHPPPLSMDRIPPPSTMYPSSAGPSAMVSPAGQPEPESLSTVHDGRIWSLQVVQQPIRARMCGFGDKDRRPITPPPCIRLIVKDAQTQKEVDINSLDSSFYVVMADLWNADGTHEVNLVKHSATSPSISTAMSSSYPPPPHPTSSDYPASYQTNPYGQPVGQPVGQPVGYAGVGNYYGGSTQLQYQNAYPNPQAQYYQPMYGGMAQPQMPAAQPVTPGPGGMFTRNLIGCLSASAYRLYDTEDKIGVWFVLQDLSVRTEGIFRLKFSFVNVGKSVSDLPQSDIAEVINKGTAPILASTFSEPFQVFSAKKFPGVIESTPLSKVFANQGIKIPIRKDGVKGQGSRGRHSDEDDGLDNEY
Experiment: co-IP

B1: VosA-HA (A. nidulans VosA with HA tag) (natural protein)
chain: MSAANYPDPSLPRPSTSDDFELIVRQNPNRARVAGGKEKERKPVDPPPIVQIRVREEGTYLAQHYLQSPYFFMSCSLYDAQEDAPASIPPSTALTGTLVSSLHRLKDVDNTDGGFFVWGDLSIKVEGDFRLKFSLFEMRKTDVVFLKSIVSERFTVSPPKSFPGMAESTFLSRSFADQGVKLRIRKEPRTLIKRTAPRPEEYPQAAIPRSPSDRTAMQIPGSSYPAPPYQPTSRDYSYYAPVKRQRTSVDYGARGMYDADGRMRQMETYPQTATLYGQPGGYPTPMMGYPSGHGGVPDYAMSYGLPPSAQVPQMQDPAAQSRSSQQATMQSLGMVNPPGTPTPDSARAMMQQAYPRPQYSASTAVLPPLQQSRNYPQGTNGATRGYYEQSPQATPILPSQPLGTSEAERYGVPPGHTGYDHTGSANGTPR
fold abundance of co-precipitated VosA against the VelB^ΔIDD-GFP strain: 10 fold
